Biological target: the molecule itself
Assay: crystal structure; three structures of GlgE (apo form, maltose co-crystallization, maltose-1P co-crystallization); sitting-drop vapour diffusion at 291 K, ~7 mg/ml protein; one dimer per asymmetric unit

B1: Mycobacterium thermoresistibile GlgE (enzyme, UniProt G7CL00 1-696, looked up)
chain: MAGRIVIDDVQPVVSNGRYPAKAVVGEVVPVAATVWREGHDAVAATLVVRYHGTTYPDLADPPPGVPGADRTAVPIGDVMTPAAPVKPQRLPMSPGHTPDVFHGHFTPDRVGLWTYRVDGWGDPIASWRHNVTAKLDAGQGESELNNDLLVGARLLERAATGVPRELREALLEAAAALRAPGDPFTRAGAALSAEVSDLLAEYPLREFVTRGEQYGVWVDRPEARFSSWYEMFPRSTGGWDAEGRPVHGTFATAAEALPRIARMGFDVVYLPPIHPIGKVHRKGRNNSVTAAPGDVGSPWAIGSDEGGHDAVHPQLGTIEDFDEFVASARDLGLEVALDLALQCAPDHPWAREHPEWFTVLPDGSIAYAENPPKKYQDIYPLNFDNDPAGIYQEVLRVVRFWISHGVNIFRVDNPHTKPPNFWAWLIGQIKNENPDVLFLSEAFTRPARLYGLAKLGFTQSYTYFTWRTSKWELTEFGQEIAAKADIARPNLFVNTPDILHESLQHGGPGMFAIRAVLAATMGPAWGVYSGYELFENQPVRPGSEEYLNSEKYELRPRDFESALARGESLEPFLTRLNEIRRLHPALRELRTIRFHHVDNDALLAYSKFDPGTGDTVLVVVTLNPFGAEEATLWLDMPELGMEPYDRFWVRDEITGEEYQWGQANYVRLDPAKAVAHVLNMPLIPADKRLQLLRRE
notes: GlgE (alpha-1,4-glucan:maltose-1-phosphate maltosyltransferase) of Mycobacterium thermoresistibile DSM 44167; glgE gene amplified from chromosomal DNA with a forward primer that begins at the GTG start codon and a reverse primer that ends at the stop codon; The construct with the cleavable N-terminal SUMO tag gave all crystals; also called maltosyl transferase; source: E. coli BL21(DE3), purified …
stoichiometry N: 2

— PMC4663749, “Structure of Mycobacterium thermoresistibile GlgE defines novel conformational states that contribute to the catalytic mechanism” (Scientific Reports, 2015)
